In US20210253718A1, “FRIZZLED5 PROTEIN-BINDING AGENTS” (Modmab Therapeutics Corporation, priority 2016, published 2021):

Tests used:
FZD4 CRD = target: T1, FZD4 CRD (Homo sapiens, UniProt Q9ULV1); assay: Immunofluorescence of anti-FZD5 Fab binding to CHO cells overexpressing Frizzled CRD; design: key: −: no binding; +: very weak binder; ++: weak binder; +++: good binder; ++++: very good binder
T1 construct: E42-V167; GPI anchor signal (C); expressed in transfected cells; host or cells: CHO cells, lentiviral pLenti-puro
T1 sequence (Q9ULV1 42-167): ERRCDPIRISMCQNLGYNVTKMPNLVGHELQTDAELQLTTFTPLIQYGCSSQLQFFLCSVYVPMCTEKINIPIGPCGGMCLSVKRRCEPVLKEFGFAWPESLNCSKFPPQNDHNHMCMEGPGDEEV
Outline: (§1)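 Specificity of anti-FZD5 Fabs was tested on CHO cells displaying membrane-anchored Frizzled CRDs (myc-tagged, GPI-linked), one family member per line. Detection was by immunofluorescence.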

FZD7 CRD = target: T2, FZD7 CRD (Homo sapiens, UniProt O75084); assay: as above; design: key: −: no binding; +: very weak binder; ++: weak binder; +++: good binder; ++++: very good binder
T2 construct: D45-S169; GPI anchor signal (C); expressed in transfected cells; host or cells: CHO cells, lentiviral pLenti-puro
Outline: as §1

FZD5 CRD = target: T3, FZD5 CRD (Homo sapiens, UniProt Q13467); assay: as above; design: key: −: no binding; +: very weak binder; ++: weak binder; +++: good binder; ++++: very good binder
T3 construct: K29-T156; GPI anchor signal (C); expressed in transfected cells; host or cells: CHO cells, lentiviral pLenti-puro
T3 sequence (Q13467 29-156): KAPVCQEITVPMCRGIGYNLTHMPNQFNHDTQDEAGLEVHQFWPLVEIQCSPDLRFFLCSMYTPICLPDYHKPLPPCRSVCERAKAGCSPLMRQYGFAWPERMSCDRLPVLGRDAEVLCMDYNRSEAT
Outline: as §1

FZD3 CRD = target: T4, FZD3 CRD (Homo sapiens, UniProt Q9NPG1); assay: as above; design: key: −: no binding; +: very weak binder; ++: weak binder; +++: good binder; ++++: very good binder
T4 construct: CRD of FZD1, FZD2, FZD3, FZD4, FZD5, FZD6, FZD7, FZD8, FZD9 or FZD10; GPI anchor signal (C); expressed in transfected cells; host or cells: CHO cells, lentiviral pLenti-puro
T4 sequence (Q9NPG1 23-136 limits assumed): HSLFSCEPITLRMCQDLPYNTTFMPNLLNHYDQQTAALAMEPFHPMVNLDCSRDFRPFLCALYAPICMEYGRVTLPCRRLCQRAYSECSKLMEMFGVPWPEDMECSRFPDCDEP
Outline: as §1

FZD1 CRD = target: T5, FZD1 CRD (Homo sapiens, UniProt Q9UP38); assay: as above; design: key: −: no binding; +: very weak binder; ++: weak binder; +++: good binder; ++++: very good binder
T5 construct: D112-P238; GPI anchor signal (C); expressed in transfected cells; host or cells: CHO cells, lentiviral pLenti-puro
Outline: as §1

[1] = test system: CHO cells not expressing Frizzled CRD; assay: Flow cytometry of anti-FZD5 Fab binding to CHO cells not expressing Frizzled CRD (background)
Description: The binding of anti-FZD5 Fabs to cell surface-expressed Frizzled protein was further determined for each member of the Frizzled family via flow cytometry and immunofluorescence analysis of a panel of 10 CHO cell lines, each ectopically over-expressing the extracellular cysteine-rich domain (CRD) of a different Frizzled protein family member.

B1: Fab-2922: anti-FZD5 Fab with antibody variable region Fv-2922; CDR SEQ ID NOs: 35, 36, 61, 99, 137, 171 (antibody, V domains shown)
VH: EVQLVESGGGLVQPGGSLRLSCAASGFNIYSSYMHWVRQAPGKGLEWVASISPYSGYTSYADSVKGRFTISADTSKNTAYLQMNSLRAEDTAVYYCARTVRGSKKPYFSGWAMDYWGQGTLVTVSS
VL: DIQMTQSPSSLSASVGDRVTITCRASQSVSSAVAWYQQKPGKAPKLLIYSASSLYSGVPSRFSGSRSGTDFTLTISSLQPEDFATYYCQQSFVYPYLITFGQGTKVEIK
In the case of B1, the “Immunofluorescence binding, Frizzled CRD overexpressed on CHO cells: FZD4” value (shortened to “Immunofluorescence binding … FZD4”) (FZD4 CRD) is reported as “−”, the “Immunofluorescence binding, Frizzled CRD overexpressed on CHO cells: FZD7” value (from here on “Immunofluorescence binding … FZD7”) (FZD7 CRD) is reported as “−” and the “Immunofluorescence binding, Frizzled CRD overexpressed on CHO cells: FZD5” value (“Immunofluorescence binding … FZD5” for short) (FZD5 CRD) is reported as “++++”. For the same molecule, the “Immunofluorescence binding, Frizzled CRD overexpressed on CHO cells: FZD3” value (“Immunofluorescence binding … FZD3” for short) (FZD3 CRD) was “−”, the “Immunofluorescence binding, Frizzled CRD overexpressed on CHO cells: FZD1” value (“Immunofluorescence binding … FZD1” for short) (FZD1 CRD) was “−” and the “Median fluorescence, Frizzled CRD overexpressed on CHO cells: None” value (“Median fluorescence” for short) [1] was 3.89.

B2: Fab-2927: anti-FZD5 Fab with antibody variable region Fv-2927; CDR SEQ ID NOs: 35, 36, 66, 104, 142, 174 (antibody, V domains shown)
VH: EVQLVESGGGLVQPGGSLRLSCAASGFNIYYSSMHWVRQAPGKGLEWVASIYPSYGYTSYADSVKGRFTISADTSKNTAYLQMNSLRAEDTAVYYCARYGYYGFDYWGQGTLVTVSS
VL: DIQMTQSPSSLSASVGDRVTITCRASQSVSSAVAWYQQKPGKAPKLLIYSASSLYSGVPSRFSGSRSGTDFTLTISSLQPEDFATYYCQQWGSHGYLITFGQGTKVEIK
B2 was tested, and the “Immunofluorescence binding … FZD4” value (FZD4 CRD) was “−”, the “Immunofluorescence binding … FZD7” value (FZD7 CRD) was “++++” and the “Immunofluorescence binding … FZD5” value (FZD5 CRD) was “++++”. For the same molecule, the “Immunofluorescence binding … FZD3” value (FZD3 CRD) was “−”, the “Immunofluorescence binding … FZD1” value (FZD1 CRD) was “+++” and the “Median fluorescence” value [1] was 3.79.

B3: Fab-2921: anti-FZD5 Fab with antibody variable region Fv-2921; CDR SEQ ID NOs: 35, 36, 60, 98, 136, 162 (antibody, V domains shown)
VH: EVQLVESGGGLVQPGGSLRLSCAASGFNISYYYIHWVRQAPGKGLEWVASIYPSSGSTSYADSVKGRFTISADTSKNTAYLQMNSLRAEDTAVYYCARGAMDYWGQGTLVTVSS
VL: DIQMTQSPSSLSASVGDRVTITCRASQSVSSAVAWYQQKPGKAPKLLIYSASSLYSGVPSRFSGSRSGTDFTLTISSLQPEDFATYYCQQWYAGSLITFGQGTKVEIK
For B3, the “Immunofluorescence binding … FZD4” value (FZD4 CRD) was “−”, the “Immunofluorescence binding … FZD7” value (FZD7 CRD) was “−” and the “Immunofluorescence binding … FZD5” value (FZD5 CRD) was “++++”. For the same molecule, the “Immunofluorescence binding … FZD3” value (FZD3 CRD) was “−”, the “Immunofluorescence binding … FZD1” value (FZD1 CRD) was “−” and the “Median fluorescence” value [1] was 3.22.

B4: Fab-2924: anti-FZD5 Fab with antibody variable region Fv-2924; CDR SEQ ID NOs: 35, 36, 63, 101, 139, 153 (antibody, V domains shown)
VH: EVQLVESGGGLVQPGGSLRLSCAASGFNISYSYIHWVRQAPGKGLEWVASIYSYYSSTSYADSVKGRFTISADTSKNTAYLQMNSLRAEDTAVYYCARGALDYWGQGTLVTVSS
VL: DIQMTQSPSSLSASVGDRVTITCRASQSVSSAVAWYQQKPGKAPKLLIYSASSLYSGVPSRFSGSRSGTDFTLTISSLQPEDFATYYCQQWYSGHSLITFGQGTKVEIK
With B4 the “Immunofluorescence binding … FZD4” value (FZD4 CRD) was “−”, the “Immunofluorescence binding … FZD7” value (FZD7 CRD) was “−” and the “Immunofluorescence binding … FZD5” value (FZD5 CRD) was “++++”. For the same molecule, the “Immunofluorescence binding … FZD3” value (FZD3 CRD) was “−”, the “Immunofluorescence binding … FZD1” value (FZD1 CRD) was “−” and the “Median fluorescence” value [1] was 4.1.
